# Results: the supplement of paper PMC10724198
# ± gives the standard deviation of the averaged measurements.
# How the values were obtained:
# Saccharomyces cerevisiae [1] = assay: protein stability index of tFT-peptide fusion (C-terminal peptide) (PSI (0-1 scale)); higher = more stable (slower turnover); settings: genetic background: wild type; temperature: 30 C
# Saccharomyces cerevisiae [2] = assay: as above
# Experimental: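 MPS profiling in S. cerevisiae of the tFT-X12 degron library: putative degron peptides plus stable controls, 12 aa, fused to the C-terminus of a sfGFP-mCherry timer. Cells are FACS-sorted into 8 mCherry/sfGFP bins and deep-sequenced. PSI runs from 0 (unstable) to 1 (stable). Backgrounds are wild type, das1Δ and doa10Δ at 30 °C, and wild type, das1Δ, cdc34-1 and cdc53-1 at 37 °C; 2-3 technical replicates each.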
# [3] = genetic background: cdc34-1, temperature: 37 C
# [4] = genetic background: cdc53-1, temperature: 37 C
# [5] = genetic background: das1 deletion, temperature: 30 C
# [6] = genetic background: das1 deletion, temperature: 37 C
# [7] = genetic background: doa10 deletion, temperature: 30 C
# [8] = genetic background: wild type, temperature: 30 C
# [9] = genetic background: wild type, temperature: 37 C
# 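Also: PSI is a weighted mean of sequencing reads over stability bins, variants kept only with over 10 reads, mCherry proximal and sfGFP distal, peptide attached via GGGS linker.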
Sequence,protein stability index (Saccharomyces cerevisiae [1]),protein stability index (Saccharomyces cerevisiae [2]; [3]),protein stability index (Saccharomyces cerevisiae [2]; [4]),protein stability index (Saccharomyces cerevisiae [2]; [5]),protein stability index (Saccharomyces cerevisiae [2]; [6]),protein stability index (Saccharomyces cerevisiae [2]; [7]),protein stability index (Saccharomyces cerevisiae [2]; [8]),protein stability index (Saccharomyces cerevisiae [2]; [9])
AAVQVCVLLLLL,0.414 ± 0.0057,0.366 ± 0.029,0.476 ± 0.032,0.341 ± 0.037,0.521 ± 0.014,0.302 ± 0.0072,0.337 ± 0.017,0.497 ± 0.014
ACSRKPIWVTWL,0.35 ± 0.065,0.666 ± 0.057,0.747 ± 0.0079,0.648 ± 0.023,0.732 ± 0.016,0.259 ± 0.0057,0.276 ± 0.058,0.51 ± 0.031
AFLLVLFCCVSC,0.298 ± 0.018,0.241 ± 0.044,0.258 ± 0.0057,0.252 ± 0.023,0.3459 ± 0.0017,0.229 ± 0.0086,0.225 ± 0.023,0.303 ± 0.01
AFLWSLFVFFRF,0.393 ± 0.085,0.254 ± 0.056,0.183 ± 0.0084,0.31 ± 0.035,0.355 ± 0.0011,0.421 ± 0.017,0.269 ± 0.042,0.363 ± 0.018
AFVVPLFLCCCG,0.255 ± 0.0048,0.1836 ± 0.0015,0.165 ± 0.013,0.212 ± 0.025,0.2768 ± 0.0025,0.184 ± 0.014,0.209 ± 0.014,0.235 ± 0.0042
ALRLPPPPFSLY,,0.677 ± 0.045,0.757 ± 0.025,0.561 ± 0.05,0.72 ± 0.035,0.174 ± 0.0065,0.237 ± 0.036,0.461 ± 0.023
APPSFPPLLLLS,,0.664 ± 0.028,0.697 ± 0.038,0.6054 ± 0.002,0.71 ± 0.016,0.254 ± 0.018,0.286 ± 0.017,0.499 ± 0.034
AQCRGGGLSGVG,,0.572 ± 0.023,0.6409 ± 0.0041,0.566 ± 0.016,0.615 ± 0.014,0.57 ± 0.013,0.562 ± 0.011,0.603 ± 0.02
CLCLICFLCWFA,,0.475 ± 0.037,0.546 ± 0.012,0.408 ± 0.0097,0.514 ± 0.0052,0.387 ± 0.01,0.384 ± 0.038,0.4958 ± 0.0039
GFLGMFFFWFAL,,0.588 ± 0.0078,0.648 ± 0.05,0.4628 ± 0.0043,0.635 ± 0.011,0.461 ± 0.012,0.473 ± 0.022,0.579 ± 0.018
GGGGMGRRVGVG,,0.361 ± 0.036,0.4177 ± 0.0019,0.396 ± 0.0093,0.4202 ± 0.0022,0.4009 ± 0.0015,0.398 ± 0.011,0.415 ± 0.0084
LCLPLYIRILSF,,0.0413 ± 0.0034,0.052 ± 0.0091,0.145 ± 0.03,0.18258 ± 1.6e-05,0.161 ± 0.0023,0.129 ± 0.016,0.126 ± 0.013
LPPTPPLSPPPH,,0.644 ± 0.025,0.688 ± 0.0077,0.435 ± 0.028,0.5935 ± 0.0017,0.414 ± 0.0084,0.433 ± 0.014,0.5864 ± 0.005
LSPRPPAPYYSP,,0.657 ± 0.067,0.733 ± 0.0089,0.662 ± 0.041,0.725 ± 0.014,0.676 ± 0.03,0.662 ± 0.028,0.7271 ± 0.0069
PSPHRAPPGGHP,,0.68 ± 0.059,0.699 ± 0.026,0.6636 ± 0.0019,0.7271 ± 0.0067,0.673 ± 0.03,0.688 ± 0.04,0.701 ± 0.0029
RKKIRTYINENV,,0.686 ± 0.079,0.699 ± 0.038,0.612 ± 0.018,0.766 ± 0.05,0.271 ± 0.018,0.334 ± 0.04,0.568 ± 0.015
RPPPTPRSVLLN,,0.67 ± 0.021,0.7154 ± 0.0015,0.668 ± 0.011,0.71 ± 0.038,0.265 ± 0.024,0.286 ± 0.024,0.506 ± 0.011
SVPCWVFLFCLA,,0.349 ± 0.01,0.416 ± 0.028,0.281 ± 0.03,0.462 ± 0.02,0.184 ± 0.016,0.227 ± 0.025,0.4033 ± 0.0033
